From patent US11156615B2 (priority 2015, dated 2021)

Key:
[1] = Thermostability: mid-point thermal denaturation temperature (Tm) from temperature-dependent fluorescence (Roche LightCycler); format: physicochemical; settings: for apoTm: apo-protein
From the text: Protein (un)folding is monitored by binding of SYPRO to the unfolded state as a function of temperature. Fluorescence intensity increases upon binding of SYPRO by the unfolded state.
Panels A-C: ttGBP182C.2.0-Imm0; Panels D-F: ttGBP182C.2.0-Imm1 (see FIG. 13). (A) Solution (Tm=347.6K). (B) Immobilized on Nickel-nitriloacetic acid (Ni-NTA) beads (Tm=346.7K). (C) Reconstituted, desiccated Ni-NTA beads (Tm=347.6K). (D) Fluorescence response of ttGGBP5.2 Imm1 immobilized on NHS-functionalized agarose beads. Data was collected on a Roche LightCycler real-time PCS instrument, recording emission intensities at 488 nm and 510 nm as a function of temperature in a 384-well microtiter plate. […] Temperature melts of twelve different wells. Apo protein thermostability as reported by the denaturation mid-point temperature is 349 K, similar to the protein free in solution. […] (F) Representative Langmuir ligand-binding curve extracted from the three-dimensional data.
Temperatures were advanced in 1K steps. […] Under these experimental photobleaching was not observed.

[2] = Glucose binding: isothermal fluorescence titrations, ratiometric (appKd) and monochromatic (trueKd) fits; parameters: key to Glucose appKd / Glucose trueKd: nb, no bonding
From the text: 2 For a single glucose-binding site, the fractional saturation is given by
[formula] where ^apoIλ2 and ^satIλ2 are the emission intensities of the monochromatic signal at wavelength λ2 of the ligand-free and ligand-bound protein, respectively.

[3] = Galactose binding: isothermal fluorescence titrations of conjugates; parameters: key to Galactose trueKd: nb, no bonding; settings: for Galactose trueKd: Badan conjugate; for Galactose trueKd / Kd: monochromatic titration curves, room temperature; for Kd: read-out: Galactose trueKd

ecGGBP: glucose-galactose binding protein from Escherichia coli, SEQ ID NO: 1 [reference compound]
mid-point thermal denaturation temperature (Tm) ([1]; GGBP homologs): 322 K

B1: ttGGBP182C.2.0⋅Acrylodan: Acrylodan conjugate of ttGGBP W182C with Q148E+R91K double mutation (SEQ ID NO: 88) (conjugate)
chain: MKQLNIGVAIYKFDDTFMTGVRNAMTAEAQGKAKLNMVDSQNSQPTQNDQVDLFITKKMNALAINPVDRTAAGTIIDKAKQANIPVVFFNKEPLPEDMKKWDKVYYVGAKAEQSGILQGQIMADYWKAHPEADKNHDGVMQYVMLMGEPGHQDAILRTQYSIQTVKDAGIKVQELAKDYANCDRVTAHDKMAAWLSSFGDKIEAVFANNDDMALGAIEALKSAGYFTGNKYIPVVGVDATAPGIQAIKDGTLLGTVLNDAKNQAKATFNIAYELAQGITPTKDNIGYDITDGKYVWIPYKKITKDNISDAEQGGSHHHHHH
modifications: Acrylodan conjugate; ttGGBP182C.2.0 (affinity-tuning mutant, 182C background (Table 6) with signal peptide replaced with M and GGSHHHHHH at C-terminus)
Kd ([2]; glucose, fit of ratiometric emission signal (figure legends), read-out: appKd): 4.5 mM | Kd ([2]; glucose, monochromatic fits at 475 nm and 545 nm (FIG. 11), read-out: trueKd): 6 mM | decrease in glucose affinity ([2]; in ttGGBP182C⋅Acrylodan): 2.6 fold

B2: ttGGBP17C.19: affinity-tuning mutant, 17C background, SEQ ID NO: 77 (protein)
chain: MKQLNIGVAIYKFDDTCMTGVRNAMTAEAQGKAKLNMVDSQNSQPTQNDQVDLFITKKMNALAINPVDRTAAGTIIDKAKQANIPVVFFNREPLPEDMKKWDKVYYVGAKAEQSGILQGQIMADYWKAHPEADKNHDGVMQYVMLMGQPGHQDAILRTQYSIQTVKDAGIKVQELAKDYANWDRVTAHDKMAAWLSSFGDKIEAVFANNDDMALGAIEALKSAGYFTGNKYIPVVGVDATAPGIQAIKDGTLLGTVLDDAKNQAKATFNIAYELAQGITPTKDNIGYDITDGKYVWIPYKKITKDNISDAEQGGSHHHHHH
modifications: ttGGBP17C.19 (affinity-tuning mutant, 17C background (Table 6) with signal peptide replaced with M and GGSHHHHHH at C-terminus)
Glucose appKd ([2]; Badan conjugate, dichromatic ratiometry, room temperature): nb^e | Glucose trueKd ([2]; Badan conjugate, monochromatic titration curves, room temperature): nb^e | Galactose trueKd [3]: nb^e | apoTm ([1]; Badan conjugate): 344 K

B3: ttGGBP182C: ttGGBP cys mutant, SEQ ID NO: 61 (protein)
chain: MKQLNIGVAIYKFDDTFMTGVRNAMTAEAQGKAKLNMVDSQNSQPTQNDQVDLFITKKMNALAINPVDRTAAGTIIDKAKQANIPVVFFNREPLPEDMKKWDKVYYVGAKAEQSGILQGQIMADYWKAHPEADKNHDGVMQYVMLMGQPGHQDAILRTQYSIQTVKDAGIKVQELAKDYANCDRVTAHDKMAAWLSSFGDKIEAVFANNDDMALGAIEALKSAGYFTGNKYIPVVGVDATAPGIQAIKDGTLLGTVLNDAKNQAKATFNIAYELAQGITPTKDNIGYDITDGKYVWIPYKKITKDNISDAEQGGSHHHHHH
modifications: ttGGBP182C (ttGGBP cys mutant with signal peptide replaced with M and GGSHHHHHH at C-terminus)
Kd ([3]; Acrylodan conjugate): 3.3 mM | apoTm ([1]; Acrylodan conjugate): 347 K

B4: ttGGBP182C.2.4: affinity-tuning mutant, 182C background, SEQ ID NO: 91 (protein)
chain: MKQLNIGVAIYKFDDTFMTGVRNAMTAEAQGKAKLNMVDSQNSQPTQNDQVDLFITKKMNALAINPVDRTAAGTIIDKAKQANIPVVFFNKEPLPEDMKKWDKVYYVGAKAEQSGILQGQIMADYWKAHPEADKNHDGVMQYVMLMGEPGHQDMILRTQYSIQTVKDAGIKVQELAKDYANCDRVTAHDKMAAWLSSFGDKIEAVFANNDDMALGAIEALKSAGYFTGNKYIPVVGVDATAPGIQAIKDGTLLGTVLNDAKNQAKATFNIAYELAQGITPTKDNIGYDITDGKYVWIPYKKITKDNISDAEQGGSHHHHHH
modifications: ttGGBP182C.2.4 (affinity-tuning mutant, 182C background (Table 6) with signal peptide replaced with M and GGSHHHHHH at C-terminus)
Kd ([3]; Acrylodan conjugate): 4.5 mM | apoTm ([1]; Acrylodan conjugate): 346 K

B5: ttGGBP182C.7: affinity-tuning mutant, 182C background, SEQ ID NO: 101 (protein)
chain: MKQLNIGVAIYKFDDTFMTGVRNAMTAEAQGKAKLNMVDSQNSQPTQNDQVDLFITKKMNALAINPVDRTAAGTIIDKAKQANIPVVFFNKEPLPEDMKKWDKVYYVGAKAEQSGILQGQIMADYWKAHPEADKNHDGVMQYVMLMGSPGHQDAILRTQYSIQTVKDAGIKVQELAKDYANCDRVTAHDKMAAWLSSFGDKIEAVFANNDDMALGAIEALKSAGYFTGNKYIPVVGVDATAPGIQAIKDGTLLGTVLNDAKNQAKATFNIAYELAQGITPTKDNIGYDITDGKYVWIPYKKITKDNISDAEQGGSHHHHHH
modifications: ttGGBP182C.7 (affinity-tuning mutant, 182C background (Table 6) with signal peptide replaced with M and GGSHHHHHH at C-terminus)
Kd ([3]; Acrylodan conjugate): 1.1 mM | apoTm ([1]; Acrylodan conjugate): 346 K

B6: ttGGBP182C.2.7: affinity-tuning mutant, 182C background, SEQ ID NO: 94 (protein)
chain: MKQLNIGVAIYKFDDTFMTGVRNAMTAEAQGKAKLNMVDSQNSQPTQNDQVDLFITKKMNALAINPVDRTAAGTIIDKAKQANIPVVFFNKEPLPEDMKKWDKVYYVGAKAEQSGILQGQIMADYWKAHPEADKNHDGVMQYVMLMGEPGFQDAILRTQYSIQTVKDAGIKVQELAKDYANCDRVTAHDKMAAWLSSFGDKIEAVFANNDDMALGAIEALKSAGYFTGNKYIPVVGVDATAPGIQAIKDGTLLGTVLNDAKNQAKATFNIAYELAQGITPTKDNIGYDITDGKYVWIPYKKITKDNISDAEQGGSHHHHHH
modifications: ttGGBP182C.2.7 (affinity-tuning mutant, 182C background (Table 6) with signal peptide replaced with M and GGSHHHHHH at C-terminus)
apoTm ([1]; Acrylodan conjugate): 346 K

B7: ttGGBP182C.2.8: affinity-tuning mutant, 182C background, SEQ ID NO: 95 (protein)
chain: MKQLNIGVAIYKFDNTFMTGVRNAMTAEAQGKAKLNMVDSQNSQPTQNDQVDLFITKKMNALAINPVDRTAAGTIIDKAKQANIPVVFFNKEPLPEDMKKWDKVYYVGAKAEQSGILQGQIMADYWKAHPEADKNHDGVMQYVMLMGEPGHQDAILRTQYSIQTVKDAGIKVQELAKDYANCDRVTAHDKMAAWLSSFGDKIEAVFANNDDMALGAIEALKSAGYFTGNKYIPVVGVDATAPGIQAIKDGTLLGTVLNDAKNQAKATFNIAYELAQGITPTKDNIGYDITDGKYVWIPYKKITKDNISDAEQGGSHHHHHH
modifications: ttGGBP182C.2.8 (affinity-tuning mutant, 182C background (Table 6) with signal peptide replaced with M and GGSHHHHHH at C-terminus)
S, selectivity = trueKd(galactose)/trueKd(glucose) ([3]; Acrylodan conjugate, S > 1, selective for glucose): 1.8 | apoTm ([1]; Acrylodan conjugate): 343 K

B8: ttGGBP182C.2.9: affinity-tuning mutant, 182C background, SEQ ID NO: 96 (protein)
chain: MKQLNIGVAIYKFDDTFMTGVRNAMTAEAQGKAKLNMVDSQNSQPTQNDQVDLFITKKMNALAINPVDRTAAGTIIDKAKQANIPVVFFNKEPLPEDMKKWDKVYYVGAKAEQSGILQGQIMADYWKAHPEADKNHDGVMQYVMLMGEPGHQDFILRTQYSIQTVKDAGIKVQELAKDYANCDRVTAHDKMAAWLSSFGDKIEAVFANNDDMALGAIEALKSAGYFTGNKYIPVVGVDATAPGIQAIKDGTLLGTVLNDAKNQAKATFNIAYELAQGITPTKDNIGYDITDGKYVWIPYKKITKDNISDAEQGGSHHHHHH
modifications: ttGGBP182C.2.9 (affinity-tuning mutant, 182C background (Table 6) with signal peptide replaced with M and GGSHHHHHH at C-terminus)
apoTm ([1]; Acrylodan conjugate): 345 K

B9: ttGGBP17C.21: affinity-tuning mutant, 17C background, SEQ ID NO: 79 (protein)
chain: MKQLNIGVAIYKFDDTCMTGVRNAMTAEAQGKAKLNMVDSQNSQPTQNDQVDLFITKKMNALAINPVDRTAAGTIIDKAKQANIPVVFFNREPLPEDMKKWDKVYYVGAKAEQSGILQGQIMADYWKAHPEADKNHDGVMQYVMLMGQPGHQDAILRTQYSIQTVKDAGIKVQELAKDYANWDRVTAHDKMAAWLSSFGDKIEAVFANNDDMALGAIEALKSAGYFTGNKYIPVVGVDATAPGIQAIKDGTLLGTVLADAKNQAKATFNIAYELAQGITPTKDNIGYDITDGKYVWIPYKKITKDNISDAEQGGSHHHHHH
modifications: ttGGBP17C.21 (affinity-tuning mutant, 17C background (Table 6) with signal peptide replaced with M and GGSHHHHHH at C-terminus)
Kd ([2]; read-out: Glucose appKd, Badan conjugate, dichromatic ratiometry, room temperature): 61 mM | Kd ([2]; read-out: Glucose trueKd, Badan conjugate, monochromatic titration curves, room temperature): 69 mM | Galactose trueKd [3]: nb | apoTm ([1]; Badan conjugate): 345 K
